Measurements taken from patent publication US20260151494A1 (ARO BIOTHERAPEUTICS, published 2026).
Blank lines part the entries; values can stand above or below the binder they belong to.

Key:
[1] = target: T1, human CD71 extracellular domain (CD71-ECD) (human, UniProt P02786 89-760); assay: primary ELISA
T1 construct: also called hCD71; human CD71-ECD

[2] = target: T1, human CD71 extracellular domain …; assay: primary ELISA, RLU ratio to HSA
[3] = target: human CD71 on cells (SKBR3; SW620-rLuc-KRAS) (human, UniProt P02786 1-760); assay: cell-based or functional assay
human CD71 on cells (SKBR3; SW620-rLuc-KRAS), sequence (P02786 whole entry, the tested form may be a part): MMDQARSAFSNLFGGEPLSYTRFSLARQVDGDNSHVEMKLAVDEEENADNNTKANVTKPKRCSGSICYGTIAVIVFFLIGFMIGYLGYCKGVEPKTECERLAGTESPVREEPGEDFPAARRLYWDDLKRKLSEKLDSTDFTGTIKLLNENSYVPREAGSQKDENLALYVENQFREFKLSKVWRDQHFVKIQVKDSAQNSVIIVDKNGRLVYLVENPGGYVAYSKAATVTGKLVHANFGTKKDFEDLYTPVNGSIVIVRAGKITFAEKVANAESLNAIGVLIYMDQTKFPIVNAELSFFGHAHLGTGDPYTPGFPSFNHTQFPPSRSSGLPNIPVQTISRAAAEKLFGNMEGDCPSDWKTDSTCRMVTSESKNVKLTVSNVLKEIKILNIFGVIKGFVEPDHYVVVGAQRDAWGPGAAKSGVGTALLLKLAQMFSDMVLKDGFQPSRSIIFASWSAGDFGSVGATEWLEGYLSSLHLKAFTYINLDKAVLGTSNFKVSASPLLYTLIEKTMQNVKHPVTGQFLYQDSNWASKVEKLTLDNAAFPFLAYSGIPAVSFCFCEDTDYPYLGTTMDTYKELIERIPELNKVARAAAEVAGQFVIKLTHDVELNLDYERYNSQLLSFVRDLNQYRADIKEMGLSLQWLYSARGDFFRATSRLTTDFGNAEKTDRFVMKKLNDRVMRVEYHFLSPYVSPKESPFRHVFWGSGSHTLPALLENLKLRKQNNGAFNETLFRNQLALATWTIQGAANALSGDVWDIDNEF

[4] = target: T2, apical domain of human CD71 (human, UniProt P02786 189-383, limits assumed); assay: primary ELISA of colonies, luminescence
T2 construct: domain: apical domain; the panning antigen was 30% biotinylated; also called human apical domain of CD71
T2 sequence (P02786 189-383 limits assumed): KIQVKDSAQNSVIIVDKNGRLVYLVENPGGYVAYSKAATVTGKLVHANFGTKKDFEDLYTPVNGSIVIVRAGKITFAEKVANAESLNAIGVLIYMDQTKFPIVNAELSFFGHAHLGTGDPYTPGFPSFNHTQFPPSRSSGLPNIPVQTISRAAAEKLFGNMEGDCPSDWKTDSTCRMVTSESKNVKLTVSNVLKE

[5] = target: T3, human CD71 extracellular domain (human, UniProt P02786 89-760); assay: primary ELISA of colonies, luminescence
T3 construct: also called hCD71; human CD71-ECD
T3 sequence (P02786 89-760): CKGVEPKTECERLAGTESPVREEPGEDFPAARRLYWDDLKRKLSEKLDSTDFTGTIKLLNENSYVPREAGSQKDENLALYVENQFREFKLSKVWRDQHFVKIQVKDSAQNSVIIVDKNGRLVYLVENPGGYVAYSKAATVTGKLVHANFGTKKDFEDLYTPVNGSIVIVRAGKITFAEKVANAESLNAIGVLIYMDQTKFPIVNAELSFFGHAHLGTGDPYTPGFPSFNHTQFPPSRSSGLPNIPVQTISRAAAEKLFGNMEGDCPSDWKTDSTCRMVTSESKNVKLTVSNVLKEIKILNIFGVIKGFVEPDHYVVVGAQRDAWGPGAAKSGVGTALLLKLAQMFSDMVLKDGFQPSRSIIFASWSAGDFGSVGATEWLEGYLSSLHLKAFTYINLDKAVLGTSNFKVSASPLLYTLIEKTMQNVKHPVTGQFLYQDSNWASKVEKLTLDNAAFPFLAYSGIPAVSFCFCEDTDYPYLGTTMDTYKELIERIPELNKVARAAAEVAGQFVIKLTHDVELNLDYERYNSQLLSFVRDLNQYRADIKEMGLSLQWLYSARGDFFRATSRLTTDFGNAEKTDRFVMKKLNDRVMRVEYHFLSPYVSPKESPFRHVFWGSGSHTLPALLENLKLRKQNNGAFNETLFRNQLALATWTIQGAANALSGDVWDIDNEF

[6] = target: T2, apical domain of human CD71; assay: primary ELISA; signal on apical domain over signal on HSA
[7] = target: T3, human CD71 extracellular domain; assay: primary ELISA; signal on hCD71 over signal on HSA

T1 sequence (P02786 89-760): as above

B1: CD71-binding FN3 domain SEQ ID NO: 259 (designed binder)
chain: MSLPAPKNLVVSRVTEDSARLSWTAPDAAFDSFYIAYAEPRPDGEAILLEVPGSERSYDLTGLKPGTEYSVLIHGVKGGLLSSPLSATFTT
RLU [1]: 3.77e+06 RLU
hCD71:HSA [2]: 300

B6: CD71-binding FN3 domain SEQ ID NO: 240 (designed binder)
chain: MSLPAPKNLVVSRVTEDSARLSWTAPDAAFDSFHIWYFEKANEGEAIPLVVPGSERSYDLTGLKPGTEYDVDIGGVKGGAWSIPLGARFTT
RLU [1]: 3.72e+06 RLU
hCD71:HSA [2]: 39

B8: CD71-binding FN3 domain SEQ ID NO: 245 (designed binder)
chain: MSLPAPKNLVVSRVTEDSARLSWTAPDAAFDSFEISYWEHTFNGEAIILFVPGSERSYDLTGLKPGTEYYVTIGGVKGGAWSPPLWAHFTT
RLU [1]: 3.75e+06 RLU
hCD71:HSA [2]: 377

B10: CD71-binding FN3 domain of SEQ ID NO: 347 (designed binder)
chain: MLPAPKNLVVSRVTEDSARLSWTAPDAAFDSFFIGYLEPQPPGEAIGLFVPGSERSYDLTGLKPGTEYNVTIQGVKGGFPSEPLKAAFTT
CTG EC50 (CellTiter-Glo luminescent assay, SKBR3 cells, 72 h) [3]: 53.4 nM

B12: CD71-binding FN3 domain of SEQ ID NO: 112 (designed binder)
chain: MLPAPKNLVVSRVTEDSARLSWTAPDAAFDSFFIGYLEPQPPGEAIDLWVPGSERSYDLTGLKPGTEYNVTIQGVKGGFPSMPLSAIFTT
notes: Screen 1 hit, tested from colonies in the primary ELISA; not shown: C-terminal poly-histidine tag added to each FN3 domain
Apical domain, RLU [4]: 4.78e+06 RLU
hCD71, RLU [5]: 5.41e+06 RLU
Apical domain:HSA [6]: 1800 ratio
hCD71:HSA [7]: 2040 ratio

B14: CD71-binding FN3 domain of SEQ ID NO: 491 (designed binder)
chain: MLPAPKNLVVSRVTEDSARLSWTAPDAAFDSFFIGYLEPQPSGEAIHLIVPGSERSYDLTGLKPGTEYNVTIQGVKGGFPSDPLVASFTT
CTG EC50 (CellTiter-Glo luminescent assay, SKBR3 cells, 72 h) [3]: 3.2 nM

B16: CD71-binding FN3 domain of SEQ ID NO: 445 (designed binder)
chain: MLPAPKNLVVSRVTEDSARLSWTAPDAAFDSFFIGYLEPQPPGEAIHLFVPGSERSYDLTGLKPGTEYNVTIQGVKGGFPSDPLVASFTT
CTG EC50 (CellTiter-Glo luminescent assay, SKBR3 cells, 72 h) [3]: 0.4 nM

B17: CD71-binding FN3 domain of SEQ ID NO: 479 (designed binder)
chain: MLPAPKNLVVSRVTEDSARLSWTAPDAAFDSFFIGYLEPQPPGEAINLWVPGSERSYDLTGLKPGTEYNVTIQGVKGGFPSTPLFAGFTT
CTG EC50 (CellTiter-Glo luminescent assay, SKBR3 cells, 72 h) [3]: 30.6 nM

B18: CD71-binding FN3 domain of SEQ ID NO: 115 (designed binder)
chain: MLPAPKNLVVSRVTEDSARLSWTAPDAAFDSFFIGYLEPQPPGEAIDLYVPGSERSYDLTGLKPGIEYNVTIQGVKGGFPSLPLQAHFTT
notes: as for B12
Apical domain, RLU [4]: 4.58e+06 RLU
hCD71, RLU [5]: 5.19e+06 RLU
Apical domain:HSA [6]: 881 ratio
hCD71:HSA [7]: 999 ratio

B20: CD71-binding FN3 domain of SEQ ID NO: 113 (designed binder)
chain: MLPAPKNLVVSRVTEDSARLSWTAPDAAFDSFFIGYLEPQPPGEAIYLLVPGSERSYDLTGLKPGTEYNVTIQGVKGGFPSDPLSAIFTT
notes: as for B12
Apical domain, RLU [4]: 5.94e+06 RLU
hCD71, RLU [5]: 4.6e+06 RLU
Apical domain:HSA [6]: 2120 ratio
hCD71:HSA [7]: 1640 ratio

B27: CD71-binding FN3 domain SEQ ID NO: 281 (designed binder)
chain: MSLPAPKNLVVSRVTEDSARLSWTAPDAAFDSFFIGYLEPQPPGEAIALYVPGSERSYDLTGLKPGTEYNVTIQGVKGGFPSEPLIANFTT
RLU [1]: 6.37e+06 RLU
hCD71:HSA [2]: 380

B28: CD71-binding FN3 domain SEQ ID NO: 333 (designed binder)
chain: MSLPAPENLVVSRVTEDSARLSWTAPDAAFDSFFIGYLEPQPPGEAIALYVPGSERSYDLTGLKPGTEYNVTIQGVKGGFPSLPLVATFTT
RLU [1]: 5.32e+06 RLU
hCD71:HSA [2]: 146

B29: CD71-binding FN3 domain SEQ ID NO: 294 (designed binder)
chain: MSLPAPKNLVVSRVTEDSARLSWTAPDAAFDSFFIGYLEPQPLGEAIHLFVPGSERSYDLTGLKPGTEYNVTIQGVKGGFPSEPLIASFTT
RLU [1]: 6.48e+06 RLU
hCD71:HSA [2]: 215

B31: CD71-binding FN3 domain SEQ ID NO: 295 (designed binder)
chain: MSLPAPKNLVVSRVTEDSARLSWTAPDAAFDSFFIGYLEPQPPGEAIDLYVPGSERSYDLTGLKPGTEYNVTIQGVKGGFPSEPLVATFTT
RLU [1]: 6.2e+06 RLU
hCD71:HSA [2]: 438

B32: CD71-binding FN3 domain SEQ ID NO: 293 (designed binder)
chain: MSLPAPKNLVVSRVTEDSARLSWTAPDAAFDSFFIGYLEPQPPGEAIDLYVPGSERSYDLTGLKPGTEYNVTIQGVKGGFPSHPLVATFTT
RLU [1]: 6.23e+06 RLU
hCD71:HSA [2]: 561

The next lines start with the values.

RLU [1]: 3.43e+06 RLU
hCD71:HSA [2]: 535
B2: CD71-binding FN3 domain SEQ ID NO: 261 (designed binder)
chain: MSLPAPKNLVVSRVTEDSARLSWTAPDAAFDSFYIAYAEPRPDGEAILLWVPGSERSYDLTGLKPGTEYSVLIHGVKGGLLSSPLHAYFTT

CTG EC50 (CellTiter-Glo luminescent assay, SKBR3 cells, 72 h) [3]: 10.9 nM
B3: CD71-binding FN3 domain of SEQ ID NO: 370 (designed binder)
chain: MLPAPKNLVVSRVTEDSARLSWTAPDAAFDSFYIAYAEPRPDGEAIVLVVPGSERSYDLTGLKPGTEYSVLIHGVKGGLLSSPLSAHFTT

RLU [1]: 3.78e+06 RLU
hCD71:HSA [2]: 664
B4: CD71-binding FN3 domain SEQ ID NO: 273 (designed binder)
chain: MLPAPKNLVVSRVTEDSARLSWTAPDAAFDSFEISYWEHTFNGEAIILFVPGSERSYDLTGLKPGTEYYVTIGGVKGGAWSPPLWAEFTT

RLU [1]: 3.53e+06 RLU
hCD71:HSA [2]: 324
B5: CD71-binding FN3 domain SEQ ID NO: 253 (designed binder)
chain: MSLPAPKNLVVSRVTEDSARLSWTAPDAAFDSFDINYWENESGGEAIALFVPGSERSYDLTGLKPGTEYWVSIGGVKGGRFSEPLYARFTT

RLU [1]: 1.7e+06 RLU
hCD71:HSA [2]: 131
B7: CD71-binding FN3 domain SEQ ID NO: 332 (designed binder)
chain: MSLPAPKNLVVSRVTEDSARLSWTAPDAAFDSFEIGYWEGPGGGEAIILVVPGSERSYDLTGLKPGTEYYVQIGGVKGGDWSTPLWATFTT

RLU [1]: 3.12e+06 RLU
hCD71:HSA [2]: 92
B9: CD71-binding FN3 domain SEQ ID NO: 267 (designed binder)
chain: MSLPAPKNLVVSRVTEDSARLSWTAPDAAFDSFEISYWEHTFNGEAIILFVPGSERSYDLTGLKPGTEYYVTIGGVKGGAWSPPLWAEFTT

CTG EC50 (CellTiter-Glo luminescent assay, SKBR3 cells, 72 h) [3]: 31.3 nM
B11: CD71-binding FN3 domain of SEQ ID NO: 497 (designed binder)
chain: MLPAPKNLVVSRVTEDSARLSWTAPDAAFDSFFIGYLEPQPPGEAITLLVPGSERSYDLTGLKPGTEYNVTIQGVKGGFPSKPLYAYFTT

CTG EC50 (CellTiter-Glo luminescent assay, SKBR3 cells, 72 h) [3]: 0.1 nM
B13: CD71-binding FN3 domain of SEQ ID NO: 527 (designed binder)
chain: MLPAPKNLVVSRVTEDSARLSWTAPDAAFDSFFIGYLEPQPPGEAIHLYVPGSERSYDLTGLKPGTEYNVTIQGVKGGFPSEPLIANFTT

CTG EC50 (CellTiter-Glo luminescent assay, SKBR3 cells, 72 h) [3]: 0.2 nM
B15: CD71-binding FN3 domain of SEQ ID NO: 469 (designed binder)
chain: MLPAPKNLVVSRVTEDSARLSWTAPDAAFDSFFIGYLEPQPPGEAIHLYVPGSERSYDLTGLKPGTEYNVTIQGVKGGFPSLPLVATFTT

Apical domain, RLU [4]: 4.43e+06 RLU
hCD71, RLU [5]: 6.36e+06 RLU
Apical domain:HSA [6]: 150 ratio
hCD71:HSA [7]: 216 ratio
B19: CD71-binding FN3 domain of SEQ ID NO: 104 (designed binder)
chain: MLPAPKNLVVSRVTEDSARLSWTAPDAAFDSFFIGYLEPQPPGEAIHLIVPGSERSYDLTGQKPGTEYNVTIQGVKGGFPSDPLVASFTT
notes: as for B12

Apical domain, RLU [4]: 4.23e+06 RLU
hCD71, RLU [5]: 6.03e+06 RLU
Apical domain:HSA [6]: 1300 ratio
hCD71:HSA [7]: 1860 ratio
B21: CD71-binding FN3 domain of SEQ ID NO: 107 (designed binder)
chain: MLPAPKNLVVSRVTEDSARLSWTAPDAAFDSFFIGYLEPQPPGEAIGLQVPGSERSYDLTGLKPGTEYNVTIQGVKGGFPSMPLSAIFTT
notes: as for B12

Apical domain, RLU [4]: 5.04e+06 RLU
hCD71, RLU [5]: 3.7e+06 RLU
Apical domain:HSA [6]: 1940 ratio
hCD71:HSA [7]: 1420 ratio
B22: CD71-binding FN3 domain of SEQ ID NO: 111 (designed binder)
chain: MLPAPKNLVVSRVTEDSARLSWTAPDAAFDSFFIGYLEPQPPGEAISLWVPGSERSYDLTGLKPGTEYNVTIQGVKGGFPSIPLWAIFTT
notes: as for B12

Apical domain, RLU [4]: 5.33e+06 RLU
hCD71, RLU [5]: 4.21e+06 RLU
Apical domain:HSA [6]: 1420 ratio
hCD71:HSA [7]: 1120 ratio
B23: CD71-binding FN3 domain of SEQ ID NO: 117 (designed binder)
chain: MLPAPKNLVVSRVTEDSARLSWTAPDAAFDSFFIGYLEPQPPGEAIWLLVPGSERSYDLTGLKPGTEYNVTIQGVKGGFPSTPLSAIFTT
notes: as for B12

Apical domain, RLU [4]: 3.35e+06 RLU
hCD71, RLU [5]: 3.94e+06 RLU
Apical domain:HSA [6]: 1030 ratio
hCD71:HSA [7]: 1210 ratio
B24: CD71-binding FN3 domain of SEQ ID NO: 109 (designed binder)
chain: MLPAPKNLVVSRVTEDSARLSWTAPDAAFDSFFIGYLEPQPPGEAIILHVPGSERSYDLTGLKPGTEYNVTIQGVKGGFPSLPLNANFTT
notes: as for B12

CTG EC50 (CellTiter-Glo luminescent assay, SKBR3 cells, 72 h) [3]: 5.8 nM
B25: CD71-binding FN3 domain of SEQ ID NO: 410 (designed binder)
chain: MLPAPKNLVVSRVTEDSARLSWTAPDAAFDSFFIGYLEPQPPGEAIALWVPGSERSYDLTGLKPGTEYNVTIQGVKGGFPSQPLHAHFTT

RLU [1]: 3.4e+06 RLU
hCD71:HSA [2]: 178
B26: CD71-binding FN3 domain SEQ ID NO: 241 (designed binder)
chain: MSLPAPKNLVVSRVTEDSARLSWTAPDAAFDSFMIAYDEFIVWGEAVVLTVPGSERSYDLTGLKPGTEYLVEILGVKGGTISGPLSAIFTT

RLU [1]: 4.66e+06 RLU
hCD71:HSA [2]: 524
B30: CD71-binding FN3 domain SEQ ID NO: 331 (designed binder)
chain: MSLPAPKNLVVSRVTEDSARLSWTAPDAAFDSFFIGYLEPQPPGEAIHLYVPGSERSYDLTGLKPGTEYNVTIQGVKVGFPSEPLIANFTT
